Results taken from the supplement of paper PMC9170038.

System: MS2 coat protein
Assay: apparent KD of MS2 coat protein, switch OFF state (with FMN for OFF switches, without FMN for ON switches); designed switch direction (-1 OFF switch, 1 ON switch): 1; higher = weaker reporter binding
Conditions: FMN input: 0 or 200 uM; Eterna round: R93 (includes R88 designs)
Summary of the method: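 Binding of SNAP-549-labelled MS2 coat protein was measured on designed RNA switches transcribed on-chip from Illumina sequencing clusters. The protein rose in twofold steps from 0.7 or 1.5 nM to 3 µM, with 0.8–1.5 h per step early on and 10–20 min per step later, in 100 mM Tris-HCl pH 7.5, 80 mM KCl, 4 mM MgCl2, without or with constant ligand. Each design's apparent KD is the median of fits to its normalised cluster binding curves.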

| Sequence | apparent KD of MS2 coat protein [nM] |
| --- | --- |
| AUAAAACAUGAGGAUCACCCAUGUAAUAAGAACCGAGGAUAUGGAAAUAAUAAUAAUAAACCAGAAGGUGGUGAUC [Meechl MS2 SS1] | 105 |
| AAAAAACAUGAGGAUCACCCAUGUCUUCGGACAUGAGGAUAUGUACAGACUUCGGUCUGUACAGAAGGCAUGAAAA [SS1 - 1013] | 39.5 |
| AAAAAACAUGAGGAUCACCCAUGUAUAAAAAUGGGAGGAUAUACUAAGACGAAAGUCAUAGUAGAAGGUCUAAAAA [76%, Meechl, 11] | 241 |
| AAAAUAAAAAGGUAGGAUAUGGGUAAACCUACAUGAGGAUCACCCAUGUAAUAAAAAGAAAAAAACCAGAAGGACCAAAAUAAAA [72%, More Wateronthemoon, 9] | 55.2 |
| AAAAAAAAAUCACAGGAUAUACGAAAAAAAACAUGAGGAUCACCCAUGUGAAAAAAAAAAAAAAAGUAGAAGGGUGAUCCAAAAAA | 8.77 |
| AAGAAACAUGAGGAUCACCCAUGUAAACUCGAGAGAGGAUAUGGUACAUGGAAGAUCCAACUAGAAGGCUCUGGAG | 17.6 |
| GAAAAACAUGAGGAUCACCCAUGUAAUACAACGUCAGGAUAUUGAUUUUAUUAUGUAUUGCAAGAAGGGACAAAAG [Mat - Same State 1 - Hyphema mod - D99] | 49.4 |
| AACAAUCUAUCUGAGGAUAUAUGUCAAAAGACAUGAGGAUCACCCAUGUAAAAACAUGAAAAAUCAUAGAAGGCAGAUAGAUUGA [SS2: 1135] | 88.3 |
| UAUUAUUACACGAAGGAUAUCGAUAAUAGUACAUGAGGAUCACCCAUGUUCAUAUCAUUUUAGUUCGAGAAGGUCGAGGGUGAAG [JR_SS002_Sub709] | 20.1 |
| GAGGACGUAGGAUAGGAUAUAUGAAUAAUUACAUGAGGAUCACCCAUGUCCAUUUAUAUGGGAACAUAGAAGGGUUGUGGUUAUC [SameState2 Malc#35] | 491 |
| AAGAAACAUGAGGAUCACCCAUGUGAGAUAAACACAGGAUAUGCGAAAAGAAAUAAAGAAGCAGAAGGGUGAAGAA [Mat - Same State 1 - Tesla mod - 71] | 94.1 |
| AAGAAACAUGAGGAUCACCCAUGUACCCAAAACGGAGGAUAUGGGAAAGAAAGAAAGAAACCAGAAGGCCGAUGAA [Amyrtaeus] | 88.8 |
| GAAAAACAUGAGGAUCACCCAUGUAGAAAUAUGGGAGGAUAUACAAACUCGAAAGUCAAAGUAGAAGGCCUAAAAG [Garnet 29] | 224 |
| AAAAACAUGGUGUAGGAUAUAUUAAUAGUCACAUGAGGAUCACCCAUGUUCAUAUAUAUGAACGAGUAGAAGGACGAUGAAAAAA [Mat - Same state - Malcolm Mod - D108] | 237 |
| AAAAAACAUGAGGAUCACCCAUGUGAGAACAUGGGAGGAUAUACGAGGACGAGAGUCAGAGUAGAAGGCCUAAAAA [Garnet 66] | 51.7 |
| UUAAGCCACGGGCAGGAUAUGUAUUAAAAUACAUGAGGAUCACCCAUGUGCAGGUGUAACACCUGACAGAAGGGCCAAUCGCGGC [Soondi] | 241 |
| AAAAAGUGAUGGUAGGAUAUUGGAAAAGCCACAUGAGGAUCACCCAUGUCAAAAAACCUAAAAAACAAGAAGGGCUGUUAUAAAAA [Same State 2.2] | 24.7 |
| AAAUAAAGGAUUAAGGAUAUAUCACAUGAAACAUGAGGAUCACCCAUGUAAUAAUAUAAAGGGUGAUAGAAGGUAGUUUAUAAAUA [High Roller2] | 242 |
| GAAAAACAUGAGGAUCACCCAUGUGAUAACAUGGGAGGAUAUACAUGGACGAUAGUCAAAGUAGAAGGCCUAAAAG [Garnet 62] | 32.1 |
| AAAUAAAUGACUAAGGAUAUAUCGAAGAAGACAUGAGGAUCACCCAUGUGAUAAUAAAAAGGGUGGUAGAAGGUAGUCAACAAAC [Mod 5 of Pariah 4 by Hyphema in Round 1] | 116 |
| AAGAAACAUGAGGAUCACCCAUGUGAAAUAAACACAGGAUAUGCGAAAAGAAACAAAGAAGCAGAAGGGUGAAGAA [Mat - Same State 1 - Tesla mod - 57] | 44.1 |
| AUGAAUAGCAUCGAGGAUAUCCAGUCAUGCACAUGAGGAUCACCCAUGUAAGAGAGAGUAUAAUGGGAGAAGGCGAGUACUCGAU [JR_SS002_Sub1704] | 69.4 |

| Sequence | apparent KD of MS2 coat protein [nM] |
| --- | --- |
| CGGAGACAUGAGGAUCACCCAUGUGAGAAGAGGCGAGGAUAUCGAAAAAAAAAAAAAAAACGAGAAGGCGCGAGAC [salish99-SS1-011] | 51.4 |
| CCGAUGGUAUACUAGGAUAUGGGCGCCCUUACAUGAGGAUCACCCAUGUUUACACAAAUCCGCGGCCAGAAGGAGUUCAUGGGAG [Orgere] | 163 |
| AAAUAAAUGACUAAGGAUAUCUCAGAGAAAACAUGAGGAUCACCCAUGUAAUAAUAACAUGAGUGAGAGAAGGUAGUCAACAAAC [Same State 2.3 (Pariah 4 -changed stack on 9nt hairpin)] | 57.5 |
| AAGAAACAUGAGGAUCACCCAUGUAGAAAUAUGGGAGGAUAUACGAAGACGAAAGUCAAAGUAGAAGGCCUAAAAG [Mat - Same State 1 - Eli mod - D107] | 68.7 |
| AACAAUCUAUCUGAGGAUAUGUGUCAAAAGACAUGAGGAUCACCCAUGUAAAAACAUGGAAAAACACAGAAGGCAGAUAGAUUGA [SS2: 1149] | 75.4 |
| AAAAUACAUGAGGAUCACCCAUGUCCGACAAAUCAAGGAUAUGAUAGCCUAACCAGGCUGUUAGAAGGUGAAAGAA [Laarera] | 51.1 |
| GAUCCGACUAGUCAGGAUAUCAGGCGUAAGACAUGAGGAUCACCCAUGUCCUAAGAACAAGUAACUGAGAAGGGACAGGGCGACC [JR_SS002_Sub413] | 62.4 |
| AUUCCAAAUAGUCAGGAUAUCAAAAAUAAGACAUGAGGAUCACCCAUGUACUUAGUAAAAGUAAAUGAGAAGGGACAGGGUGUAA [JR_SS002_Sub404] | 19.4 |
| GAAAAACAUGAGGAUCACCCAUGUAGAAAUAUGGGAGGAUAUACAAACUCGAAAGACAAAGUAGAAGGCCUAAAAG [Garnet 24] | 133 |
| GAAAAACAUGAGGAUCACCCAUGUAGAAAUAUGGGAGGAUAUACUAUGACGAAAGUCAAAGUAGAAGGUCUAAAAG [JL S1 M-MoE mod 6 In the Read] | 125 |
| AAAAGACAUGAGGAUCACCCAUGUAAAAACAUAGGAGGAUAUGUCAUGAAAAAAGACUUGACAGAAGGCCUUUGUC [SS1 - 49] | 69.8 |
| AAAUAACAUGAGGAUCACCCAUGUUGCAACGGUACAGGAUAUGUGGGUGAAAAUAGCAUGGCAGAAGGGUAGUGUA [SameState1 Malc#29] | 67.8 |
| AAAAGACAUGAGGAUCACCCAUGUCAAGACAUAGGAGGAUAUGUCUUGAAAAAAGACUUGACAGAAGGCCUUUGUC [SS1 - 58] | 21.1 |
| GAAAUACAUGAGGAUCACCCAUGUUAGGUGGGUCAAGGAUAUUAAGGUAAAUAAAAACCUUGAGAAGGUGAAUAAA [JR_SS001_Sub203] | 239 |
| GAAAAACAUGAGGAUCACCCAUGUAGAAAUAUGGGAGGAUAUACAAAGACGAAAGUCAAAGUAGAAGGCCCAUAAG [Starry Same State 1.6 (mat747 round 1 mod)] | 16.2 |
| AAAAAACAUGAGGAUCACCCAUGUCAAAAGACAUGAGGAUAUGUACAGACUUCGGUCUGUACAGAAGGCAUGAAAA [SS1 - 1011] | 524 |
| AACAAUCUAUCUGAGGAUAUGUGUCGAAAGACAUGAGGAUCACCCAUGUGAAAACAUGAAAAGAUACAGAAGGCAGAUAGAUUGA [SS2: 1155] | 35.9 |
| AAGAAACAUGAGGAUCACCCAUGUGAGAUAAACACAGGAUAUGCAAAAGAAAGAAAGAAAGCAGAAGGGUGAAGAA [Mat - Same State 1 - Tesla mod - 51] | 129 |
| AAACCACAUGAGGAUCACCCAUGUAAAAAUAUGGAAGGAUAUGCGAAAAGAAACAAAGAAGCAGAAGGUCUAAAAA [75%, Ex sub1, 20] | 27.7 |
| CGAAAGGAGAGAGAGGAUAUCCAAAGGAAAACAUGAGGAUCACCCAUGUAGAAGGUAGGAGAUUGGGAGAAGGCUCAAGCUAAAC [salish99-ss2-158] | 37.3 |
| AAACCACAUGAGGAUCACCCAUGUAAAAAUAUGGGAGGAUAUACUAGAAGAAACAAAAUAGUAGAAGGCCUAAAAA [75%, Ex sub1, 28] | 78.1 |
